Laboratory results: paper PMC5608322, “Spontaneous non-canonical assembly of CcmK hexameric components from β-carboxysome shells of cyanobacteria” (PLoS ONE, 2017)

B1: CcmK1 from Synechocystis sp. PCC6803 with C-terminal TEV site and His4 tag (K1^-TH) (natural protein, UniProt P72760 1-111, looked up)
chain: MSIAVGMIETLGFPAVVEAADSMVKAARVTLVGYEKIGSGRVTVIVRGDVSEVQASVTAGIENIRRVNGGEVLSNHIIARPHENLEYVLPIRYTEAVEQFREIVNPSIIRR
notes: CcmK1, Synechocystis sp; PCC6803, full-length gene, codon-optimized for E. coli; A TEV protease recognition site stands between protein and His4 tag; also called K1^-TH 6803; CcmK1 Syn6803; source: E. coli BL21 (DE3), purified (TALON cobalt IMAC); not shown: His4, C-terminal, kept
B2: CcmK4 from Synechocystis sp. PCC6803 with N-terminal His4 tag and TEV site (^HT-K4) (natural protein, UniProt P73407 1-112, looked up)
chain: MSAQSAVGSIETIGFPGILAAADAMVKAGRITIVGYIRAGSARFTLNIRGDVQEVKTAMAAGIDAINRTEGADVKTWVIIPRPHENVVAVLPIDFSPEVEPFREAAEGLNRR
notes: CcmK4, Synechocystis sp; PCC6803, full-length gene, codon-optimized for E. coli; A TEV site stands between tag and protein; source: E. coli BL21 (DE3), purified (TALON cobalt IMAC); not shown: His4, N-terminal, kept
B3: CcmK4 from Synechocystis sp. PCC6803 with C-terminal TEV site and His4 tag (K4^-TH) (natural protein, UniProt P73407 1-112, looked up)
chain: MSAQSAVGSIETIGFPGILAAADAMVKAGRITIVGYIRAGSARFTLNIRGDVQEVKTAMAAGIDAINRTEGADVKTWVIIPRPHENVVAVLPIDFSPEVEPFREAAEGLNRR
notes: CcmK4, Synechocystis sp; PCC6803, full-length gene, codon-optimized for E. coli; source: E. coli BL21 (DE3), purified (TALON cobalt IMAC); not shown: His4, C-terminal, kept
B4: CcmK1 from Synechocystis sp. PCC6803, TEV-proteolysis product of K1^-TH (K1^-) (natural protein, UniProt P72760 1-111, looked up)
chain: MSIAVGMIETLGFPAVVEAADSMVKAARVTLVGYEKIGSGRVTVIVRGDVSEVQASVTAGIENIRRVNGGEVLSNHIIARPHENLEYVLPIRYTEAVEQFREIVNPSIIRR
notes: CcmK1, Synechocystis sp; PCC6803, full-length gene, codon-optimized for E. coli; Measured mass indicated loss of the first Met residue; also called untagged K1^- 6803; Syn6803 K1^-; source: E. coli BL21 (DE3), purified (TALON cobalt IMAC), tag removed with turbo TEV protease; not shown: His4, C-terminal, cleaved
B5: CcmK4 from Synechocystis sp. PCC6803, TEV-proteolysis product of K4^-TH (K4^-) (natural protein, UniProt P73407 1-112, looked up)
chain: MSAQSAVGSIETIGFPGILAAADAMVKAGRITIVGYIRAGSARFTLNIRGDVQEVKTAMAAGIDAINRTEGADVKTWVIIPRPHENVVAVLPIDFSPEVEPFREAAEGLNRR
notes: CcmK4, Synechocystis sp; PCC6803, full-length gene, codon-optimized for E. coli; Sample partly degraded by proteolysis (species of similar but not identical mass in native MS); Measured mass indicated loss of the first Met residue; also called Syn6803 K4^-; source: E. coli BL21 (DE3), purified (TALON cobalt IMAC), tag removed with turbo TEV protease; not shown: His4, C-terminal, cleaved
B6: CcmK4 from Synechocystis sp. PCC6803, TEV-proteolysis product of ^HT-K4 (^-K4) (natural protein, UniProt P73407 1-112, looked up)
chain: MSAQSAVGSIETIGFPGILAAADAMVKAGRITIVGYIRAGSARFTLNIRGDVQEVKTAMAAGIDAINRTEGADVKTWVIIPRPHENVVAVLPIDFSPEVEPFREAAEGLNRR
notes: CcmK4, Synechocystis sp; PCC6803, full-length gene, codon-optimized for E. coli; also called Syn6803 -K4; source: E. coli BL21 (DE3), purified (TALON cobalt IMAC), tag removed with turbo TEV protease; not shown: His4, N-terminal, cleaved
B7: CcmK2 from Synechococcus elongatus PCC 7942 with C-terminal His6 tag (K2^-H Syn7942) (natural protein, Synechococcus elongatus PCC7942, UniProt Q03511 1-102, looked up)
chain: MPIAVGMIETLGFPAVVEAADAMVKAARVTLVGYEKIGSGRVTVIVRGDVSEVQASVSAGLDSAKRVAGGEVLSHHIIARPHENLEYVLPIRYTEAVEQFRM
notes: also called K2^-H 7942; Syn7942 K2^-H; source: E. coli BL21 (DE3), purified (TALON cobalt IMAC); not shown: His6, C-terminal, kept
B8: NIR K2^-TH: triple mutant of CcmK2 Syn6803 with A63 A64 N65 replaced by NIR of CcmK1 (natural protein, Synechocystis sp. PCC6803, UniProt P72761 1-103, looked up)
chain: MSIAVGMIETRGFPAVVEAADSMVKAARVTLVGYEKIGSGRVTVIVRGDVSEVQASVSAGIENIRRVNGGEVLSTHIIARPHENLEYVLPIRYTEEVEQFRTY
notes: CcmK2, Synechocystis sp; PCC6803, as K2^-TH with residues 63-65 AAN replaced by NIR; TEV site between protein and tag as in K2^-TH; also called N^63IR K2^-TH 6803; source: E. coli BL21 (DE3), purified (TALON cobalt IMAC); not shown: His4, C-terminal, kept
B9: R80A mutant of K1^-TH (CcmK1 Syn6803) (natural protein, Synechocystis sp. PCC6803, UniProt P72760 1-111, looked up)
chain: MSIAVGMIETLGFPAVVEAADSMVKAARVTLVGYEKIGSGRVTVIVRGDVSEVQASVTAGIENIRRVNGGEVLSNHIIAAPHENLEYVLPIRYTEAVEQFREIVNPSIIRR
notes: CcmK1, Synechocystis sp; PCC6803, as K1^-TH with R80A; TEV site between protein and tag as in K1^-TH; source: E. coli BL21 (DE3), purified (TALON cobalt IMAC); not shown: His4, C-terminal, kept
B10: D49A mutant of K1^-TH (CcmK1 Syn6803) (natural protein, Synechocystis sp. PCC6803, UniProt P72760 1-111, looked up)
chain: MSIAVGMIETLGFPAVVEAADSMVKAARVTLVGYEKIGSGRVTVIVRGAVSEVQASVTAGIENIRRVNGGEVLSNHIIARPHENLEYVLPIRYTEAVEQFREIVNPSIIRR
notes: CcmK1, Synechocystis sp; PCC6803, as K1^-TH with D49A; TEV site between protein and tag as in K1^-TH; source: E. coli BL21 (DE3), purified (TALON cobalt IMAC); not shown: His4, C-terminal, kept
B11: R28A mutant of K1^-TH (CcmK1 Syn6803) (natural protein, Synechocystis sp. PCC6803, UniProt P72760 1-111, looked up)
chain: MSIAVGMIETLGFPAVVEAADSMVKAAAVTLVGYEKIGSGRVTVIVRGDVSEVQASVTAGIENIRRVNGGEVLSNHIIARPHENLEYVLPIRYTEAVEQFREIVNPSIIRR
notes: CcmK1, Synechocystis sp; PCC6803, as K1^-TH with R28A; TEV site between protein and tag as in K1^-TH; source: E. coli BL21 (DE3), purified (TALON cobalt IMAC); not shown: His4, C-terminal, kept
B12: R28A/R80A double mutant of K1^-TH (CcmK1 Syn6803) (natural protein, Synechocystis sp. PCC6803, UniProt P72760 1-111, looked up)
chain: MSIAVGMIETLGFPAVVEAADSMVKAAAVTLVGYEKIGSGRVTVIVRGDVSEVQASVTAGIENIRRVNGGEVLSNHIIAAPHENLEYVLPIRYTEAVEQFREIVNPSIIRR
notes: CcmK1, Synechocystis sp; PCC6803, as K1^-TH with R28A and R80A; TEV site between protein and tag as in K1^-TH; source: E. coli BL21 (DE3), purified (TALON cobalt IMAC); not shown: His4, C-terminal, kept
B13: AAN K1^-TH: triple mutant of CcmK1 Syn6803 with N63 I64 R65 replaced by AAN of CcmK2 (natural protein, Synechocystis sp. PCC6803, UniProt P72760 1-111, looked up)
chain: MSIAVGMIETLGFPAVVEAADSMVKAARVTLVGYEKIGSGRVTVIVRGDVSEVQASVTAGIEAANRVNGGEVLSNHIIARPHENLEYVLPIRYTEAVEQFREIVNPSIIRR
notes: CcmK1, Synechocystis sp; PCC6803, as K1^-TH with residues 63-65 NIR replaced by AAN; TEV site between protein and tag as in K1^-TH; also called A^63AN K1^-TH 6803; source: E. coli BL21 (DE3), purified (TALON cobalt IMAC); not shown: His4, C-terminal, kept

Target: the molecule itself
Test: SEC; Beckman Ultraspherogel SEC2000 column, 20 mM Tris-HCl, 300 mM NaCl, pH 7; size by comparison with calibration standards; oligomer of the protein with itself

Row | Protein | stoichiometry N
1 | B1 | 6
2 | B2 | 6
3 | B3 | 6

Target: the molecule itself
Test: native MS; nano-ESI Q-ToF, positive ion mode, 150 mM ammonium acetate pH 8, soft ionization; tandem MS/MS (CID) of hexamer ions gives monomers and pentamers; oligomer of the protein with itself

Row | Protein | stoichiometry N
4 | B4 | 6
5 | B5 | 6
6 | B6 | 6
7 | B7 | 6

Target: the molecule itself
Test: AFM imaging; purified protein adsorbed on freshly cleaved mica, imaged in buffer in contact mode at ambient temperature; 10 mM NaPi, MES or Tris, 300 mM NaCl, pH 5.0 to 8.0, some with 0.5 mM additives; hexamers tiling into 2D assemblies

Row | Protein | binding result
8 | B8 | binds
9 | B9 | binds
10 | B10 | binds
11 | B11 | binds
12 | B12 | binds
13 | B13 | binds
